Test results from a protein production outcome set (Wang et al. 2014).

Experiment: label from the status in PepcDB records

Sequence | protein production
MSLTFSILAHDPETGAIGGAAATGSLCVGGWVLRGDLNAGMSASQGAAPSTFWGEEVLQHLRDGSHPEDAVNHVTSQDSGRAYRQLAAMDLLGNAAAFTGSENQDIKGSVTFASGIASGNMLGDNSVLGAMTEAFVASDLTFERRLLAALIAAEGAGSDFRGLLSAAMLVLHPDRPPVTLRIDYHPDNPIGALEQLYQKATTGDYADWARQVPVLSDKERILDEGHHHHHH | not failed
MAGFMKNAMSYLGMSDVAEGEDDFEDDVDTGETSFDSDHSVTPMPSSSASASTPSAPREQSNPFQGGRVSRITTIHPKTYDDAQMVGRAIRDGIPVVLNLTGVAEAVAYRIVDFSAGVVFGVRGSIERVTPRVFLLSPAQVNIKVEEPEDKGPAHDLFAD | failed
MARLARLGEPFALATVVASSGSSPRKAGAKMLIRGDGSALGTVGGGHVEQDTLAAARASLAEGAPRTLEFVLTEEHGYACGGSMSVFIEPQGRRPLLVMFGAGHVGRAVTALAHGCGFRVIVVDERPEYAVPALLPGADEIVCVPVGAAFARLTLDRESFAVIATPGHVHDFDAVRGCLATEVGFIGLLGSRRKREALMKTLTEEGYEAGRQARVVTPVGLDIGAQTPEEIAVSIVGQLVKLRRQA | failed
MIKLLKKINIKSIIELVKKDFKLKLISLSVGIVMWFLVIGGVNPVVTRQFTDVPVSFKNQSVLESRKLIRVSPENPTVTVTITGKRSDVYSVNKSDIVAEVNLQNGITSGAHRLSINYKVPYNVQFKSASDNDLLVTLDEEISKTYKVEVETIGQIKNKNQVVAKKEPADSEVVVKGPVSYVNKVKRVRCVVDVTNKDGDEVVQSKIVPVDELNKEVKKVSLSKTDTNVSIGFKNFKEVPIKLVEINSPPSDVRILKKDIVPNIISIVGNLTSLEQISQINTKPFDLSQIKESGSYNLNLELPSDVTLVNNDLKVVINIDVDKKIEKTLEIDTSNIEIENESGKDILLKGLQDKVKVTVRGYESDLAKLNAEDIRLYISVKKEDVGKNVQIKAKNIENIEIAKISNDIVQAIGK | failed
MTAPEETAPVSVRKPSKPDLWKDSLGRTATRALQILLILTLTVVAVFGLLQIRLLVIPVLIALILAAAIGPFVNMLRRRGWRGGLATGVAFLGLLIVLGGVITVIVMSVRSQWDELISQAAAGLDELESFLLTGPFPIDREQLNQAREAVVEFAQSSQVRSGAVTGLSVVTEFLAGASLVVVILFFFLKDGAKIWEFFLRPFKGRREAKLRRVGKRTMEVLGGYVRGTAIVALVDTVAIGAALLIMQVPLAIPLAIIVFIGAFIPLVGATVAGILAALVALVANGPIVALIVIIVVIAVNQLEGDLLQPVVMGKSLELHALVILMALTAGTILAGIIGAVLAVPIAAVTWAIIQVWTAEDPDLEPMNPELPPANSQPT | failed
MNATSTAPSSRHTLRSLAGDVFELLGSMRFAVSLLMFICIASIVGTVLAQNRPSNVYVDQFGPFWFEVFDKFSIWHVYNSWWFLLIMTFLVVSTSVCLIRNTPKMLREARSFREHVRASSLRAFPHRLQTEVAQPVSETAQGVTGLLGQFGYAVRERRDGDGIMLAAKKGSANRLGYIFAHSAMVIICIGGLLDSEAPVRLQVLFDGKQPIAINGEMARADIPDSALLSVNNPSYRANLWVPEGSNASLATIAVNDRSLVQPLPFSLRLKKFTVDYYSTGMPSRFLSLVEVTDPETGEMFDQTIEVNEPLRYKGVTVYQSSFDDGGSSVSLTGYPLVGAGDTPFKVDGVVGQTSEIGARIGDQPKSMKIEFTALRVINVEDFSGGQPGAQNLSLREHVASVAGSAAGKKNENLRNVGPRIDYKLIDDAGQAHEFQNYMLPVVLDGVPVFLSAVRNNPADDFQYLRIPADDQGSLAEFMRLRAALADPAARQEAARRFAERNAPSGTDRQPLETAAQRALATFAEGGLQAIADFLQANTAPDDLERAAGIVVRLVGASVAELRDIARARAGLPALPQSGPQADEAAQWSRVAVAALSDLAFYPAPVMFSLTDFQERQGSVFQVARTPGKNAVYLGCVLLILGIFAMFYIRDRRVWVWVKPAADGAGSSIEAAMTSQKRTLDFNQEFDRLREALLRQSKP | failed
MGISPPLTAVSAFGTDVSGNAFIGAGVATLAVLMVLSAFFSSSEIAMFSIPRHRIDALVEEGRSGADAVAALKSDPHRLLITILVGNNLVNIAMSSIATGLFATSMSQGKAVLAATFGVTALVLLFGESAPKSYAVENSESWALSIAKPLQWSERFLYPLVVLFDYLTRAVNQFTGGRAAIESSYVTRSEIQDMIKTGEREGVIEEDEREMLQRIFRFNNTIAKEVMTPRLDVVAVSKTDTIEAAIQTCTQAGHERVPVYDGELDNVIGVVSLEDLVRESLYGETEDAELDDLIEPTLHVPESKNVDDLLQEMQDERVQLVVVIDEFGTTEGLLTAEDITEEIVGEILDGGEDLPIDSVDEDTVRVRGEVNIEEVNEALNIDLPEGEEFETIAGFIFNRAGRLVEEGEAFRFEDIELTVEHVENTRIMKARVQRLDSAAEADANAEVLTADSTGNGA | failed
MAIARHRSFSRAAIELGVSASALSHALKGLETRLGVRLLNRTTKSVTPTAAGEELVQSVLQPFDTIEGALESLNRYRNTPTGRIRINAAVEAANLLLAPVMPAFMDRYPDIEIDIVASNRMVDVTDAGFDAGIRYGGTVPEDMVARRLSADIRWVIAASPDYLERYGTPEHPDDLLHHRCISNRLGDDRVYRWELARDGETYQMTVPGSVTVNHAETGLVAVLGGAGLMYFPEPLVAPYVKDGRLRLVLTEWSPLEEGFHIYYSSRRQLPTGLRLLIEFIQEARPLGL | failed
MILINKRAEKQDYQTILAIWEKSVIVTHDFLTAEDRQFYKEQIPLFLDNVELFLWFAGEEVIGFSGTSERELDMLFLDPVATGNGYGSQILGWLIENKRINLVDVNEQNENATRFYLKHGFVVSSRSDLDGFGKPYPILQLQLKERVNGV | not failed
MDQEAFLRERIEKAQAQLQKLRDENRVLRARQIMWGCIEGTIDVCQLGEKDLQDLSSVIDDYLDSLKSRIEYLKKNGEPSSSLPPRVLQDLNVKEDGDIPSMDGSHHQFETNRLTTITTTADACAPNITNNP | failed
DEKGNIVDGDQIMYICSKHLKSEGRLKDDTVVSTVMSNLGFYKALEKEGIKSVQTAVGDRYVVEAMKKDGYNVGGEQSGHLIFLDYNTTGDGLLSAIMLMNTLKATGKPLSELAAEMQKF | failed
MGLKIIHNEGIEMKLQLKADLGLLLVTFFWGASILLTKVGLEGIEEYNLIALRFIIAFLLSGLIFYKHLFKIDFKTVKYAFILASVLFIVYIFATFGTKYTSVSNAGFLLCLTVIFIPILSAIFLKHIPEQKVIVGIILTIIGIGLLTLTSEFKIGNGDIFCILSALFYAIHVIITGSVTKHVNSIALGVVQLGFVGLFSLIFSFIIETPKLPSTINSWLIILALSIFCTAVAFIVQVIAQQYTTPTHTGLIFSLEPVFSAGFAFVFTGETLTRKGYLGATLILVSVLIAEVDFKSLLRVNYKKNVE | failed
MGETVVRDAVTIGKPAEQLYAVWRDLPGLPLLMTHLRSVEVLDDKRSRWTVEAPAPLGTVSWEAELTADEPGKRIAWRSLPGARIENSGEVLFRPAPGARGTEVVVRLTYRPPGGSAGAVIARMFNQEPSQQLRDDLMRFKREQELGLEHHHHHH | not failed
MSFQEIPIIDLQEAFDPATRSKFLEEVRDAIINVGFLLLKNYESLGPTEEDLQSIKQQAIEFFALPAKEKLQCEMLNSPHFLGYTRLANEITASHTDWREQIDLATELPAPKEGEPLYKNIEGPNLWPNPEVIPKFRPTIERFIEKMTALSNVFKDLVAESIGVDPKALNRYFKENQQCKMKLIAYPDVSELDGTKSAALDDTPETNQGVEPHRDSDLITYIYQATEHQNSLQVQNFQGHWITVPNIPGHLVVNNGQTLQAITGGVAKATIHRVLVPEKGTGTRISIPFFQTIDLDSSKGVVDNLPQEVIDLKNERDKKIKDWGVDTGFQFEPDVSKEPIGHAVFRNRIKSHQDVAKKWYPDVLKSVLQEYTH | not failed
MSVKKERVDVLLVERGLIETREKAKRAIMAGLVYANEMRLDKPGEKISQDTEITVKGQVMPYVSRGGYKLEKALETFHLDLQDKVMIDIGSSTGGFTDCALQNGAKLSYALDVGYNQLAWKLRQDERVVVMERTNFRYVTPADLERGLPQFASIDVSFISLKLILPVLKTMLMPNGDVAALIKPQFEAGREQVGKKGIVRDRKVHEAVVEMIVEFALKEGYDVEGLTFSPITGGDGNIEFLIHLKWHGERENGENHSPISIEQVVTEAHEVLKQKGKGE | failed
MTDIPAPAPAAEFWEARYRDTGRVWSGRPNELLVQEAGGLAPGTALDLGCGEGADAVWLASRGWRVTGVDISATALERAAGHADGAGVGDRVLWERHELGPSFPEGSFDLVSAHYLQSPVALDQQAVLRAAARAVAPGGTLLVVMHAGWPSWQTEPPFDAAFPTLDGVLAELALPEGEWSVETRRTARRPSVAPDGTEGFREDHVWRLKRAVFVE | failed
MKRRRRNSKLKFEETSDQSPTSTAEFSFSLTKIAVSQICQSIGYKATDASALNTLTLTTTKFLQSLAELASSFSNTANRTEVNLFDIVNGLQDIALSTSDCFPGGSTVHDIESQCLIKSAVLRNLSDFVTYAPEIPFAKPLPRRERDGSFGGDLDHVAVTRSVDVTSVPAWLPPFPDSSLCSDRCSKDNRSDHLWENSDSVIRREILPESLKSKSGGRLPVMRDKVRFKMEQRDWSSGGDTRLERSRDNNNGESGRDLEVKKKIREGYTYCAGEWPF | failed
MRVEIWSDIACPWCYVGKARFEKALAAFPHRDGVEVVHRSFELDPGRAKDDVQPVLTMLTAKYGMSQEQAQAGEDNLGAQAAAEGLAYRTRDRDHGSTFDLHRLLHLAKERGRHEALLDAFYRGNFADERSVFNDDERLVELAVGAGLDAEEVRAVLADPAAYADEVRADEREAAQLGATGVPFFVLDRAYGVSGAQPAEVFTQALTQAWGERTPLKLIDDGGAEACGPDGCAVPGH | not failed
MFNKVIMVGRLTRNVELKYLPSGSAAATIGLATSRRFKKQDGTLGEEVCFIDARLFGRTAEIANQYLSKGSSVLIEGRLTYESWMDQTGKKNSRHTITADSLQFMDKKSDNPQANAMQDSIMHENSNNAYPANHNAPSQDPFNQAYAQNAYAKENLQAQPSKYQNSVPEINIDEEEIPF | failed
MTNNAKKEPQQRGKHQVHNVRFYTIKPREIVSLAYSKSSKCLALSRATPVIELWNLEHAPYLDRVIHLPTDSHVESIAWAGNRLFSVDLSGKLIEWDVIKLKQRYEHSPTGNALWSIDVNPAETDIAIGSEEGHINILSIENDEITYKSLFNKQKGRVLCIKFDKTGTKLVTGTEGFVRIWNVLKGTTLHTMTLSEKNVIVWSLQVLSDNTIIAGDSAGFVTVWDADNATQIDSTRVLDKNVFALAVNNKEDRLVCSGMQPPLIRIFSKTKIKREESTSERWIKFLQRDAHKHYVKSLLVIDDQIYSGGRDGILTITSSERMQAHLSQHAPFLKGSVASMAISKKLLLLRYPNSVHLWRLGSVAPQGEDKKKPWALPVGHTEEQLLELPPQKLLQLNVKEHNFIQSAAISSDANWICYSTLKELRISRLKSDPLQVERLVDDLPEELQPASHIIFTKQGDLVLLNPQNNHLSWFTLEEDLVTFKYTIDLSEKCKNTISHVVISSHGEYIVAASSDHIISVWKLHGKQYKHLLNLPRHRAGTTALSMHEDYPRVVVAYANGQLVEYDLVNRIFTCETNEYLIPETRRHCINGISLDPQNRNIFIVHTEGNLYVLERDQHLDPKELVSNSKSKKLSNGNRSSVDGGSKGLSLKTTLSRQHLVHVSRLSPNELVNVSISTNNLLAPLPPPYQRKKFGAS | failed
AAKQDVKVFSEDGTSKVVEILADMTARDLCQLLVYKSHCVDDNSWTLVEHHPHLGLERCLEDHELVVQVESTMASESKFLFRKNYAKYEFFK | failed
MTAVETKKQYLTVFKEDGIAEIHLHINKSNSYDLEFYKEFNAAIDDIRFDPDIKVVIVMSDVPKFFSAGADINFLRSADPRFKTQFCLFCNETLDKIARSPQVYIACLEGHTVGGGLEMALACDLRFMGDEAGKIGLPEVSLGVLAGTGGTQRLARLIGYSRALDMNITGETITPQEALEIGLVNRVFPQAETRERTREYARKLANSATYAVSNIKLAIMNGKEMPLNVAIRYEGELQNLLFRSEDAKEGLSAFLEKRQPNWKGI | not failed
